Test system: MS2 coat protein
Test: apparent KD of MS2 coat protein; designed switch direction (-1 OFF switch, 1 ON switch): -1; higher = weaker reporter binding
Summary of the method: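 Apparent KD, taken as the median over clusters for each design, was obtained by curve-fitting normalised cluster fluorescence. Designed RNA switches had been transcribed on Illumina chips by stalled E. coli RNA polymerase and titrated with SNAP-549-labelled MS2 coat protein, doubling from 0.7 or 1.5 nM to 3 µM.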

[1] = Eterna round: R95, input ligand: microRNA oligo, concentration not stated
[2] = Eterna round: R95, input ligand: FMN 200 uM
[3] = Eterna round: R95, input ligand: none
[4] = input ligand: microRNA oligo, concentration not stated

Sequence | apparent KD of MS2 coat protein (input ligand: FMN 200 uM) [nM] | apparent KD of MS2 coat protein (input ligand: none) [nM] | apparent KD of MS2 coat protein [1] [nM] | apparent KD of MS2 coat protein [2] [nM] | apparent KD of MS2 coat protein [3] [nM] | apparent KD of MS2 coat protein [4] [nM]
CUUUUGUGAGGAUAUUAGUAGUUUAUAAUUAAAAUUAUUACUGAGAAGGCACAUGAGGAUCACCCAUGUACCAC [JR_Ex4_Sub030] (Eterna round: R97, puzzle: Exclusion 4) | 92.8 | 21.8 |  |  |  | 
CUUUUUUUUGUGAGGAUAUACUGUUAUUAAAGUUAGUAGAAGGUACAUGAGGAUCACCCAUGUUAAUUACUUUA [JR_BME4_Sub050] (puzzle: Brourd's mod of Exclusion 4) |  |  | 12.9 |  |  | 
GAAAACGCUGAGGAUAUUUCUGAUCAAAGCAGCAAAGAAGGCAGCACAUGAGGAUCACCCAUGUGGUCUUCAAA [jl-ex6-4.03 ViennaUCT mod] (Eterna round: R97, puzzle: Exclusion 6) | 907 | 32.1 |  |  |  | 
GAAAACGUAGGAUAUUAAUACUCAGACAUGAGGAUCACCCAUGUUUGGUGGGUCGGAGAAUGAGAAGGGCGAUGAA [EX5 #14] (Eterna round: R97, puzzle: Exclusion 5) | 82.3 | 89.7 |  |  |  | 
GAAAAGGCAGAGGAUAUUUCAGAUCAAAGCUGCAAAGAAGGCUGCACAUGAGGAUCACCCAUGUGGUCUUAAAA [Mod of Quesina 5 - Jieux - Exclusion 6] (Eterna round: R97, puzzle: Exclusion 6) | 176 | 18.4 |  |  |  | 
GAAAAGGUAGAGGAUAUUUCAGAUCAAAGCUGCAAAGAAGGCUGCACAUGAGGAUCACCCAUGUGGUCUUUAAA [Mod of Quesina 10 - Jieux - Exclusion 6] (Eterna round: R97, puzzle: Exclusion 6) | 70.1 | 17.6 |  |  |  | 
GAAAAGGUAGGAUAUACGAAAAAAAAGGGUAAAAAAAAAACACAUGAGGAUCACCCAUGUAGAAGGACCAAAAG [salish99_ex2_r3_062] (puzzle: Exclusion 2) |  |  | 32.4 | 44.4 | 34 | 
GAAAAGGUAGGAUAUAUGAAAAAAAAGGGUAGAAAAAAAACACAUGAGGAUCACCCAUGUAGAAGGACCAAAAG [salish99_ex2_r3_056] (puzzle: Exclusion 2) |  |  | 46.3 | 37.2 | 26.9 | 
GAAAAGUGAGGAUAUGGUAAAAGAAAAAGAAAAAGAAAACUCCAGAAGGCACAUGAGGAUCACCCAUGUAAAAG [salish99_ex4_r3_005] (puzzle: Exclusion 4) |  |  | 19.4 | 26.9 | 23.6 | 
GAAAAGUGAGGAUAUUGUUUUUUUUUGAAAACGGGAGAGGGCAAGAAGGCACAUGAGGAUCACCCAUGUAAGGU [Alacar 2] (Eterna round: R97, puzzle: Exclusion 4) | 66.4 | 44.1 |  |  |  | 
GAAAAUGUGGAGGAUAUCGACUUCGAAAGAAGUCGAGAAGGCCACACAUGAGGAUCACCCAUGUGAUGCCAAUA [Omei Ex6 H9] (Eterna round: R97, puzzle: Exclusion 6) | 443 | 284 |  |  |  | 
GAAAAUGUGGAGGAUAUCGACUUCGAAAGAAGUCGAGAAGGCCACACAUGAGGAUCACCCAUGUGUGCCUUAAA [Omei Ex6 H3] (Eterna round: R97, puzzle: Exclusion 6) | 23.9 | 12 |  |  |  | 
GAAAAUGUGGAGGAUAUCGACUUCGAAAGAAGUCGAGAAGGCCACACAUGAGGAUCACCCAUGUGUUCCUUCAA [Omei Ex6 H2] (Eterna round: R97, puzzle: Exclusion 6) | 569 | 52.2 |  |  |  | 
GAACAGGUAGGAUAUACUGGACGCGACAUGAGGAUCACCCAUGUCCUCGGCAUAGGCGCUGUAGAAGGGCCUAAAA [Eternabot (Original) Solution 29] (Eterna round: R97, puzzle: Exclusion 5) | 29.9 | 30.2 |  |  |  | 
GAAGGACGAGGAUAUGUAUGGGACAGCCGAGGAAAAUCUCAACAUGAGGAUCACCCAUGUAGAAGGCGUGCCCG [Eternabot (Original) Solution 44] (Eterna round: R97, puzzle: Exclusion 2) | 16.4 | 14.1 |  |  |  | 
GAAGUGCACAUGAGGAUCACCCAUGUGGGUGAGCCGUGCCUGAAGGAUAUGGCUCCCGAUGGAGACCAGAAGGUCAGUAAAUAA [Ededor] (Eterna round: R96, puzzle: Exclusion NG 3) | 367 | 1030 |  |  |  | 276
GAAUACAAGUAAAGAUCCUACAUGAGGAUCACCCAUGUGCUCGUCUUGUAAAGUACUAUCACGAAAGUGAUAGUACA [Mat - Sensor v3 - turn-off var 1 - Eli Mod - D88] (puzzle: Sensor v3, turn-off variant 1) |  |  | 159 | 53.8 | 47.1 | 

Sequence | apparent KD of MS2 coat protein (input ligand: FMN 200 uM) [nM] | apparent KD of MS2 coat protein (input ligand: none) [nM] | apparent KD of MS2 coat protein [1] [nM] | apparent KD of MS2 coat protein [2] [nM] | apparent KD of MS2 coat protein [3] [nM] | apparent KD of MS2 coat protein [4] [nM]
GAAUAGAGAGGAUAUGCAAUGAAGGUAGUACGAUAUAUCUGACAUGAGGAUCACCCAUGUAGAAGGCUCAGAUC [EX2 #8] (Eterna round: R97, puzzle: Exclusion 2) | 29.2 | 29.3 |  |  |  | 
GAAUAGCAAGCGAGAUCCCACAUGAGGAUCACCCAUGUGCUCGUCUUAUAAAGUACUGUGACGAUAGUCACGGUACA [Mat - Sensor, turn-off var - Eli Mod - D13] (Eterna round: R97, puzzle: Sensor, turn-off variant 1) | 16.5 | 14.9 |  |  |  | 
GAAUAGCGAGGAUAUACAUGAGGAUCACCCAUGUGAUCCUUAGGCUGUUCAAGCCUAUGUAGAAGGCGCAAAUU [jl-ex3.4.56 ViennaUCT mod] (Eterna round: R97, puzzle: Exclusion 3) | 86.2 | 335 |  |  |  | 
GAAUGAGAGCAGGAUAUCUUAUAAGUGUAUGAAAGAGAAGGGCUCACAUGAGGAUCACCCAUGUGGUCCUAGAU [jl-ex6-4.86 jandersonlee mod] (Eterna round: R97, puzzle: Exclusion 6) | 329 | 41.7 |  |  |  | 
GAAUUAGUAGGAUAUACAUGAGGAUCACCCAUGUCUCAAACCAUGUACAGGAGAGGCUGUAGAAGGACUGAACA [Eternabot (Original) Solution 19] (Eterna round: R97, puzzle: Exclusion 3) | 36 | 31.7 |  |  |  | 
GACCGGACGUGGUCAGGUAACAUGAGGAUCACCCAUGUAGGUCUAGGAACAAGCCUUUUGUAGGCUCGUCUUAUAAA [JR_SV3TOV1_Sub059] (puzzle: Sensor v3, turn-off variant 1) |  |  | 36.1 | 47.5 | 63.6 | 
GACCUCACGGUCAGGAUAUCAGAACGGAAUGCGCAUGAGAAGGGACAUGAGGAUCACCCAUGUGGGCUCGUCGC [Eddionce] (puzzle: Brourd's mod of Exclusion 4) |  |  | 13.9 | 21.6 | 17.9 | 
GACGCUAAAGGAUAUACAUGAGGAUCACCCAUGUUGAGGAAGGUUAGAUGAGGAGUAAGUAGAAGGUUAGACGA [JR_Exclu3_Sub091] (puzzle: Exclusion 3) |  |  | 27.4 | 32 | 30.8 | 
GACUAGGCAGGAUAUACAUGAGGAUCACCCAUGUGUCUGCGUUAAGCACGUGAAGACGGUAGAAGGGCCUACAC [ChP 13.04.2015 #18] (puzzle: Exclusion 3) |  |  | 13 |  |  | 
GACUCUCCCGUGAGGAUAUAUGAGGCCAUGAUUCCAUAGAAGGCACAUGAGGAUCACCCAUGUCGGGCAUAGCC [Eternabot (L2) Solution 8] (Eterna round: R97, puzzle: Brourd's mod of Exclusion 4) | 25.7 | 41.3 |  |  |  | 
GACUGUCGAGAGGAUAUCUUUCCCAAGCGGGUCAGAGAAGGCUUGACAUGAGGAUCACCCAUGUUGAUUGCUAG [EX6 C.23] (Eterna round: R97, puzzle: Exclusion 6) | 389 | 140 |  |  |  | 
GAGAAAUUAUAGGAUAUCGUAUGGAUAAUUUAACGAGAAGGAUGAACAUGAGGAUCACCCAUGUGGUAUCAUGG [JL-ex6-3.13] (puzzle: Exclusion 6) |  |  | 327 | 262 | 331 | 
GAGAAUUUAUAGGAUAUCGUAUGCAUAAUUUAACGAGAAGGAUGAACAUGAGGAUCACCCAUGUGGUAUCAUGG [salish99_ex6_r3_001] (puzzle: Exclusion 6) |  |  | 192 | 88.9 | 122 | 
GAGCAGCCGAUAGGAUAUUCCGAGCUAAAGAGCAGUAGGACAUGAGGAUCACCCAUGUGUGCAUGGAAGAAGGGUCACUUCCAG [Eternabot solution 23] (Eterna round: R96, puzzle: Exclusion NG 2) | 25.8 | 30.7 |  |  |  | 24.2
GAGGAGCAAGGAUAUACGAGGAGAGGGAAGAGAGGAGAGAGACAUGAGGAUCACCCAUGUAGAAGGUGCAAGGA [JR_Exclu2_Sub092] (puzzle: Exclusion 2) |  |  | 35.4 | 46 | 43.8 | 
GAGGGAGGAGGAUAUUCCUUCGAGAACAUGAGGAUCACCCAUGUGUUAUAUCGAAAGCCCGAAGAAGGCCUCGCUA [Eternabot (Original) Solution 50] (Eterna round: R97, puzzle: Exclusion 5) | 17.5 | 20.2 |  |  |  | 
GAGGUGUUAGGAUAUCGGAGAUGGAGAAGAACGGGAAGAGGCGAGAAGGAACAUGAGGAUCACCCAUGUAGGUG [JR_Exclu4_Sub029] (puzzle: Exclusion 4) |  |  | 357 |  |  | 
